Patent US20070072177A1 (CRUCELL HOLLAND B V, published 2007)

T1: glycoprotein of rabies virus strain CVS-11 (rabies virus strain CVS-11, UniProt O92284 20-524)
T1 sequence: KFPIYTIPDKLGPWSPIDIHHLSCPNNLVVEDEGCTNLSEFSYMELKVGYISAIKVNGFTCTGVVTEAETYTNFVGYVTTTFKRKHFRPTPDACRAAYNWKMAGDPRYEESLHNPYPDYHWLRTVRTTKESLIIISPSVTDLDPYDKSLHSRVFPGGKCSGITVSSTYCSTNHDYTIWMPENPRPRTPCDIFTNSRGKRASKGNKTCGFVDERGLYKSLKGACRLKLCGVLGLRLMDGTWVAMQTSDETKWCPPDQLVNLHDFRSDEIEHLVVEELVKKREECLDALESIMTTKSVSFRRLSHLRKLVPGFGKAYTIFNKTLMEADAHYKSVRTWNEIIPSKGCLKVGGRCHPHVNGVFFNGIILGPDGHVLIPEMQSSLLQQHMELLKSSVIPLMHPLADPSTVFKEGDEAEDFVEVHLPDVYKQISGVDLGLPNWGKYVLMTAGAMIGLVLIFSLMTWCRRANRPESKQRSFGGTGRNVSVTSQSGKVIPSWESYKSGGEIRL

T2: rabies virus glycoprotein (G protein) of strain CVS-11 (rabies virus strain CVS-11, UniProt O92284 20-524)
T2 sequence: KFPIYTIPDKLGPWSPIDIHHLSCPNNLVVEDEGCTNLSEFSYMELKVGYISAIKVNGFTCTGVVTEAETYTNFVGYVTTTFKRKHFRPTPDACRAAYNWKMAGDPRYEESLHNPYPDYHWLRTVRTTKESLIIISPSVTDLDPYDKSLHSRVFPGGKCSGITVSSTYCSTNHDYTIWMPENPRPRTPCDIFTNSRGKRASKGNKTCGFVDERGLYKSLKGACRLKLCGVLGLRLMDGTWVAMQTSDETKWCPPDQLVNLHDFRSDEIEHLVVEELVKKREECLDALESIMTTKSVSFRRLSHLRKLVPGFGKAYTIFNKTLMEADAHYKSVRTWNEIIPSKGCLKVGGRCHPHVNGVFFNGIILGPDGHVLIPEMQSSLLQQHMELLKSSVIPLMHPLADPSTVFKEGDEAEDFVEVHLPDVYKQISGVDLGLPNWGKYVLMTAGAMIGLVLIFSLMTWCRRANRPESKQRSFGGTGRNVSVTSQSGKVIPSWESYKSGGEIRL

B1: SC04-097 (scFv)
scFv: AMAEVQLVQSGGHLVQPGGSLRLSCAASGFTFSSYAMSWVRQAPGKGLEWVSLIIGSGRSTYYADSVKGRFTISRDNSKNTLYLQMNSLRAEDTAVYYCAKTASNLGRGGMDVWGQGTTVTVSSGTGGSGGTGSGTGGSTDIQLTQSPSSLSASVGDRVTITCRASQGISSHLAWYQQKPGKAPKLLIYAASSLQSGVPSRFSGSGSGTEFTLTISSLQPEDFATYYCQQFNSYPITFGQGTRLEIKRAAA
B2: SC04-120 (scFv)
scFv: AMAEVQLVQSGGGLVQPGRSLRLSCAASGFTFSTYGMHWVRQAPGKGLEWVATISYDGSIKDYADSEKGRFTISRDNSKNTLYLQMNSLRAEDTAVYYCAKGGKTGEFDYWGQGTLVTVSSGTGGSGGTGSGTGGSTDIQLTQSPSTLSASVGDRVTITCRASQGINSYLAWYQQEPGKAPKLLIYAASTLQSGVPSRFSGSGSGTEFTLTISSLQPEDFATYYCQQLNSYPFTFGPGTKVDIKRAAA
B3: SC04-125 (scFv)
scFv: AMAQVQLVESGGGVVQPGRSLRLSCAASGFTFSSYGMHWVRQAPGKGLEWVAVISYDGSDKYYADSVKGRFTISRDNSKNTLYLQMNSLRAEDTAVYYCAKIATAGTGFDYWGQGTLVTVSSGTGGSGGTGSGTGGSTDIQMTQSPSSVSASVGDRVTITCRASQGISSYLAWYQQKPGKAPKLLIYDASSLESGVPSRFSGSGSGTEFTLTISSLQPDDFATYYCQQLNSYPLTFGGGTKVEIKRAAA
B4: SC04-098 (scFv)
scFv: AMAEVQLVQSGGGAVQPGRSLRLSCAASGFTFSSYGMHWVRQAPGKGLEWVAVILYDGSDKFYADSVKGRFTISRDNSKNTLYLQMNSLRAEDTAVYYCAKVAVAGTHFDYWGQGTLVTVSSGTGGSGGTGSGTGGSTDIQMTQSPSSLSASVGDRVTITCRASQGIRNDLGWYQQKPGKAPKLLIYAASSLQSGVPSRFSGSGSGTDFTLTISSLQPEDFATYYCQQLNSYPPTFGGGTKVEIKRAAA
B5: SC04-126 (scFv)
scFv: AMAQVTLKESGPTLVNPTQTLTLTCTFSGFSLSTGGVGVGWFRQPPGKALEWLARIDWDDDKYYSTSLKTRLTISKDTSKIQVVLTMTNMDPVDTATYYCARMGFTGTYFDYWGQGTLVTVSSGTGGSGGTGSGTGGSTQSVLTQPPSVSVAPGKTARITCGGNNIGSKSVHWYQQKPGQAPVLVIYYDSDRPSGIPERFSGSNSGNTATLTISRVEAGDEADYYCQVWDSSSDHPYVFGTGTKLTVLGAAA
B6: SC04-146 (scFv)
scFv: AMAEVQLVQSGGGVVQPGRSLRLSCAASGFTFSSYGMHWVRQAPGKGLEWVATISYDGSIKDYADSEEGRFTISRDNSKNTLYLQMNSLRAEDTAVYYCAKGGKTGEFDYWGQGTLVTVSSGTGGSGGTGSGTGGSTDVVMTQSPATLSVSPGESATLFCRASESVYSNLAWYQHKPGRAPRLLIYGASTRATGIPARFDGTGSGTDFTLTISSLQSEDFAVYYCQQYNDWPITFGQGTRLEIKRAAA
B7: SC04-104 (scFv)
scFv: AMAQVQLQESGGGVVQPGRSLRLSCAASGFTFSSYGMHWVRQAPGKGLEWVATISYDGNVKDYADSVKGRFTISRDNSKNTLYLQMNSLRTEDTAVYYCAKIVVVTALDAFDIWGQGTMVTVSSGTGGSGGTGSGTGGSTDIQLTQSPSTLSASVGDRVTITCRASQILGHWLPLSWYQQKPGKAPKLLISKASSLESGVPPRFSGSGSGSDFTLTISSLQPDDFATYYCLQYHEYPLTFGGGTKLEIKRAAA
B8: SC04-103 (scFv)
scFv: AMAQVQLQESGGGVVQPGRSLRLSCAASGFTFSSYGMHWVRQAPGKGLEWVAVILYDGSDKYYADSVKGRFTISRDNSKNTLYLQMNSLRAEDTAVYYCAKVAVAGESFDSWGRGTLVTVSSGTGGSGGTGSGTGGSTDIQLTQSPSSVSASVGDRVTITCRASQGISSWLAWYQQKPGKAPRSLIYDASSLQSGVPSRFSGSGSGTDFTLTISSLQPEDFATYYCQQADSFPITFGQGTRLEIKRAAA
B9: CR04-010 (antibody, V domains shown)
VH: QVQLVESGGDLVQPGRSLRLSCAASGFTFSSYGMHWVRQAPGKGLEWVADISYDGSNKYYADSVKGRFTISRDNSKNTLYLQMNSLRAEDTAVYYCAKDGLDLTGTIQPFGYWGQGTLVTVSS
VL: AIQMTQSPSSLSASVGDRVTITCRASQGIRNDLGWYQQKPGKAPKLLIYAASSLQSGVPSRFSGSGSGTDFTLTISSLQPEDFATYYCLQDYNYPRTFGQGTKVEIKR
B10: CR04-098 (antibody, V domains shown)
VH: QVQLVESGGGAVQPGRSLRLSCAASGFTFSSYGMHWVRQAPGKGLEWVAVILYDGSDKFYADSVKGRFTISRDNSKNTLYLQMNSLRAEDTAVYYCAKVAVAGTHFDYWGQGTLVTVSS
VL: DIQMTQSPSSLSASVGDRVTITCRASQGIRNDLGWYQQKPGKAPKLLIYAASSLQSGVPSRFSGSGSGTDFTLTISSLQPEDFATYYCQQLNSYPPTFGGGTKVEIKT
B11: CRJB (antibody, V domains shown)
VH: QITLKETGPTLVKPTQTLTLTCTFSGFSLSTSGVGVGWIRQPPGKALEWVTLIYWDDDKRYSPSLENRVTIRKDTSKNQVALTMTNMDPLDTGTYYCAHRQHISSFPWFDSWGQGTLVTVSS
VL: SYVLTQPPSVSVAPGKTARINCGGNNIEYRSVHWYQQKSGQAPVAVIYDNSDRPSGIPERFSGSKSGNTATLTISRVEAGDEADYYCQVWDISSDVVFGGGTKLTVLG
B12: CR57 (antibody, V domains shown)
VH: QVQLVQSGAEVKKPGSSVKVSCKASGGTFNRYTVNWVRQAPGQGLEWMGGIIPIFGTANYAQRFQGRLTITADESTSTAYMELSSLRSDDTAVYFCARENLDNSGTYYYFSGWFDPWGQGTLVTVSS
VL: QSALTQPRSVSGSPGQSVTISCTGTSSDIGGYNFVSWYQQHPGKAPKLMIYDATKRPSGVPDRFSGSKSGNTASLTISGLQAEDEADYYCCSYAGDYTPGVVFGGGTKLTVLG
B13: SC04-140 (scFv)
scFv: AMAQMQLVQSGGGVVQPGRSLRLSCAASGFTFSSYGMHWVRQAPGKGLEWVAVILYDGSNKYYADSVKGRFTISRDNSKNALYLQMNSLRAEDTAVYYCAKVTNPGDAFDIWGQGTMVTVSSGTGGSGGTGSGTGGSTDIQMTQSPSSLSASVGDRVTITCRASQGISSALAWYQQKPGKAPKLLIYDASSLESGVPSRFSGSGSGTDFTLTISSLQPEDFATYYCQQFNSYPLTFGGGTKVEIKRAAA
B14: SC04-144 (scFv)
scFv: AMAQVQLQELGGGVVQPGRSLRLSCAASGFTFGSYGMHWVRQAPGKGLEWVATISYDGSIKDYADSEKGRFTISRDNSKNTLYLQMNSLRAEDTAVYYCAKGGKTGEFDYWGQGTLVTVSSGTGGSGGTGSGTGGSTDIQLTQSPSSLSASVGDRVTITCRASQGISSYLAWYQQKPGKGPKLLIYAASTLQSGVPSRFSGSGSGTDFSLTISSLQPEDLATYYCQQYDSYPLTFGGGTKVEIKRAAA
B15: SC04-108 (scFv)
scFv: AMAEVQLVQSGGGLVQPGGSLRLSCAASGFTFSSYGMHWVRQAPGKGLEWVAVILYDGSDKFYADSVKGRFTISRDNSKDTLYLQMNSLRAEDTAVYYCAKFMIVADDAFDIWGQGTMVTVSSGTGGSGGTGSGTGGSTDIQLTQSPSSLSASVGDRVTITCRASQGISSHLVWYQQKPGKAPKSLIYAASSLQSGVPSRFSGSESATDFTLTISSLQPEDFATYYCQQYYSYPITFGQGTRLEIKRAAA

Key:
[1] = target: T1, glycoprotein of rabies virus strain …; experiment: cell-based or functional assay
[2] = target: T3, purified rabies virus glycoprotein (rabies virus ERA strain) (rabies virus strain ERA, UniProt P03524 20-524); experiment: phage ELISA on coated purified G protein (ERA), anti-M13-HRP
[3] = target: T2, rabies virus glycoprotein (G protein) …; experiment: cell-based or functional assay
[4] = target: T3, purified rabies virus glycoprotein …; experiment: SPR (BIAcore3000), ERA glycoprotein amine-coupled to CM5 chip, antibody injected

Binder	Potency (IU/ml) [1]	OD 492 nm [2]	Neutralizing potency (modified RFFIT) [3]	Kd [4]
B1	0.2 IU/ml	0.835 OD 492 nm		
B2	6 IU/ml	0.571 OD 492 nm		
B3	3 IU/ml	0.735 OD 492 nm		
B4	9 IU/ml	0.798 OD 492 nm		
B5	0.1 IU/ml	0.232 OD 492 nm		
B6	3 IU/ml	0.484 OD 492 nm		
B7	1 IU/ml	0.566 OD 492 nm		
B8	0.3 IU/ml	0.606 OD 492 nm		
B9			3000 IU/mg	
B10				4.5 nM
B11			605 IU/mg	
B12			3800 IU/mg	
B13	1 IU/ml	0.865 OD 492 nm		
B14	6 IU/ml	0.775 OD 492 nm		
B15	1 IU/ml	0.363 OD 492 nm		
